The record followed here is patent publication US20130177528A1, “COMPOSITIONS AND METHODS FOR INHIBITING VIRAL INFECTION” (WESTERN UNIVERSITY OF HEALTH SCIENCES, priority 2011, published 2013).

The subject of experiment [1] is CMV Ad169. The experiment is described as follows: CMV plaque assay in RPE cells (Example 5). It counts as cell-based, Cytomegalovirus. The conditions noted are these: virus pre-incubated with 1 mg/ml for 120 min, MOI 0.01, 3 days. How it is done: Viral plaque assay. Confluent layers of RPE cells in glass bottom dishes were infected with CMV Ad169 strain in the presence and absence of CN at 0.01 PFU per cell for 2 hrs. This was followed by extensive but gentle washing three times with DMEM media followed by feeding cells with DMEM media. The cells were then incubated at 37° C. for thee days. Cells were then fixed using fixative buffer after 3 days for 30-45 min. The cells were washed three times with 1X PBS before RPE cells stained for Giemsa satin for additional 45 minutes. This was followed by 10 times washing with 1 X PBS to remove excess stain. The number of plaques formed were then visualized and quantified as indicated. In another protocol, confluent layers of HeLa cells (approximately 10^6) in six-well dishes were infected with HSV-1 (804) strain at 0.01 PFU/celI in presence and absence of CN for 2 h at 37° C. After removal of inoculum, monolayers were overlaid with DMEM comaining 2.5% heat-inactivated calf serum and incubated at 37° C. At 24 h, the cells were fixed by using fixative buffer (2% formaldehyde and 0.2% glutaradehyde) at room temperature for 20 min, followed by Giemsa staining for 45 min. The cells were again washed 5× in PBS and the numbers of plaques were counted. The images were taken by using Nikon D-Eclipse-C1 microscope (Nikon Instruments Inc., Melville, N.Y., USA).
A wild type strain of CMV Ad169 was used. The virus was again either pre-incubated with 1×PBS (control) or with CN at 1 mg/ml for 120 min at room temperature. After 120 min of incubation the two pools of viruses were incubated on target retinal pigment epithelial (RPE) cells at MOI (multiplicity of infection; MOI) of 0.01 for additional 2 hrs at 37° C. This was followed by washing to remove unbound viruses and feeding cells with fresh DMEM media. The plates were kept for 3 days before the plaque formation was visually observed (upper panels) and quantified (lower panel) after fixing cells with buffer (FIG. 9). […] Based on visual evidence, the plaque formation was quantified in each group and was scored (lower panel).

For experiment [2], the system named is HSV-1 glycoproteins (gB, gD, gH-gL) mediated cell-to-cell fusion. The experiment is described as follows: Virus-free HSV-1 glycoprotein-mediated cell-to-cell fusion assay (Example 12). It counts as cell-based, human. As for the experimental part:
FIG. 15A-B show the inhibition of HSV-1 glycoprotein-induced cell-to-cell fusion by CN and proposed model for CN-based anti-HSV-1 activity during cell entry. (A) In this experiment the naturally susceptible target human corneal fibroblasts (CF) cells expressing gD-receptors and luciferase gene were pre-incubated with 1 μM contortrostatin (CN) and mixed in 1:1 ratio with the effector Chinese hamster ovary (CHO-K1) cells expressing herpes simplex virus type-1 (HSV-1) glycoproteins (gB, gD, gH-gL) along with T7 plasmid (white bar indicated as treated [Tr]). In parallel, CN-untreated CF cells were similarly mixed with effector cells as positive control (+; black bar). The target CF cells co-cultured with effector cells devoid of HSV-1 glycoproteins were considered as negative control (−; grey bar). Membrane fusion as a means of viral spread was detected by monitoring luciferase activity. Relative luciferase units (RLUs) were determined using a Sirius luminometer (Berthoid Detection Systems, Titertek Instruments, Inc., Huntsville, Ala., USA). Error bars represent SD. (B) A cartoon illustrates the CN-mediated HSV-1 inhibition that might affect three major steps (a-c) that are involved during HSV-1 entry. (a) CN (presented by hatching) binding to host cell surface integrin (presented by α and β subunits) may affect HSV -1 glycoprotein H (gH) binding to integrins. […]

Experiment [3] deals with HSV-2 (333 gJ-reporter virus). Briefly: HSV-2 infection of HeLa cells, ONPG assay (Example 4). It counts as cell-based. The conditions noted are these: virus pre-incubated; starting concentration 1 mg/ml. As for the experimental part: In this experiment different clinical strains of HSV-1 (F, G, and MP strains of HSV-1 [37] at 25 pfu/cell) were either pre-incubated with 1×PBS (control) or with CN at the concentrations indicated in FIG. 8, panel A for 90 min at room temperature. After 90 min of incubation the two pools of viruses were incubated with Nectin-1 receptor expressing CHO Igβ cells that express β-galactosidase upon viral entry as described. The viral infection blocking was measured by ONPG assay (FIG. 8, panel A). Similar experiment was conducted using Lac Z encoded HSV-2 (333 gJ-reporter virus). HSV-2 is a genital herpes virus. […] Each value shown is the mean of three or more determinations (±SD).

B1: contortrostatin (protein)
chain: DAPANPCCDAATCKLTTGSQCADGLCCDQCKFMKEGTVCRRARGDDLDDYCNGISAGCPRNPFHA
Consider B1, for which, in experiment [1], the “CMV cytopathic effect (CPE)” value is “significantly lower cytopathic effect”, the CMV plaque formation result is “significantly reduced the plaque formation” and the “size of CMV plaques” value is listed as “small compared to untreated CMV virions”. Moreover, in experiment [2] (CN-treated target cells co-cultured with effector cells, data not shown), the polykaryocyte formation result is given as “failed to form polykaryons”. The “cell-to-cell fusion (luciferase activity, RLU)” value in experiment [2] (target human CF treated with 1 μM, effector CHO-K1 cells expressing gB, gD, gH-gL, 1:1) is on record as “impaired cell-to-cell fusion”. Moreover, the “HSV-2 infection of HeLa cells (dose response, ONPG assay)” value in experiment [3] is “blocks infection”.
